Measured values as given in patent publication US8889130B2, “Treatment of osteoarthritis and pain” (Abbvie Inc., priority 2011, dated 2014).

Tests used:
hIL-1β = hIL-1β (Homo sapiens, UniProt P01584); assay: Surface plasmon resonance (Biacore) binding kinetics and affinity to hIL-1β; settings: antigen hIL-1β
Method: (§1) The kinetics of DVD-Ig molecules binding to rhIL1-α and rhIL1-β was determined by surface plasmon resonance-based measurements with a Biacore 3000 instrument (Biacore AB, Uppsala, Sweden) using HBS-EP (10 mM HEPES, pH 7.4, 150 mM NaCl, 3 mM EDTA, and 0.005% surfactant P20) at 25° C. All chemicals were obtained from Biacore AB (Uppsala, Sweden) or otherwise from a different source as described herein. Approximately, 5000 RU of goat anti-human IgG Fcγ fragment specific polyclonal antibody (Pierce Biotechnology Inc, Rockford, Ill.) diluted in 10 mM sodium acetate (pH 4.5) was directly immobilized across a CM5 research grade biosensor chip using a standard amine coupling kit according to manufacturer's instructions and procedures at […]. Unreacted moieties on the biosensor surface were blocked with ethanolamine. Modified carboxymethyl dextran surface in flowcell 2 and 4 was used as a reaction surface. Unmodified carboxymethyl dextran without goat anti-human IgG in flow cell 1 and 3 was used as the reference surface. For kinetic analysis, rate equations derived from the 1:1 Langmuir binding model were fitted simultaneously to association and dissociation phases of all ten injections (using global fit analysis) using the Bioevaluation 4.0.1 software. Purified DVD-Ig samples were diluted in HEPES-buffered saline for capture across goat anti-human IgG Fc specific reaction surfaces and injected over reaction matrices at a flow rate of […]. The association and dissociation rate constants, kon (M-1s-1) and koff (s-1) were determined under a continuous flow rate of […]. Rate constants were derived by making kinetic binding measurements at ten different antigen concentrations ranging from 1.25 to 1000 nM. The equilibrium dissociation constant (M) of the reaction between DVD-Ig molecule and rhIL1α/β was then calculated from the kinetic rate constants by the following formula: KD=koff/kon. Aliquots of rhIL1α/β samples were also simultaneously injected over a blank reference and reaction CM surface to record and subtract any nonspecific binding background to eliminate the majority of the refractive index change and injection noise. Surfaces were regenerated with two subsequent […] injections of 10 mM Glycine (pH 1.5) at a flow rate of […]. The anti-Fc antibody immobilized surfaces were completely regenerated and retained their full capture capacity over twelve cycles. The apparent stoichiometry of the captured DVD-Ig-rhIL1α/β complex was calculated under saturating binding conditions (steady-state equilibrium) using the following formula: […]

[1] = Size exclusion chromatography (SEC): physical homogeneity and in vitro stability; type: physicochemical; settings: 0.2-0.4 mg/ml in PBS, SEC
Method: For measuring molecular weight (MW) of light and heavy chains of DVD-Ig binding protein, 10 μL of DVD-Ig molecule (0.8 μg/μL) was reduced by 1.0 M DTT solution (5 μL). A PLRP-S, 8μ, 4000 A, and 1×150 mm protein column (Michrom BioResource, Auburn, Mass.) was used to separate heavy and light chains of DVD-Ig molecule. Agilent HP1100 Capillary HPLC (Agilent Technologies Inc., Pala Alto, Calif.) was used with the mass spectrometer QSTAR (Applied Biosystems, Foster City, Calif.). The valco valve was set at 10 minutes to switch the flow from waste to MS for desalting sample. Buffer A was 0.02% TFA, 0.08% FA, 0.1% ACN and 99.8% HPLC-H2O. Buffer B contained 0.02% TFA, 0.08% FA, 0.1% HPLC-H2O, and 99.8% ACN. The HPLC flow rate was 50 μL/minute and the sample injection volume was […]. The temperature of the column oven was set at 60° C., and separation gradient was: 5% B for 5 minutes; 5% B to 65% B for 35 minutes; 65% B to 95% B for another 5 minutes, and 95% B to 5% B for 5 minutes. TOFMS scan was from 800 to 2500 amu, and cycles were 3600. To determine the MW of full length DVD-Ig binding protein, a Protein MicroTrap cartridge (Michrom BioResource, Auburn, Mass.) was used for desalting the sample. The HPLC gradient was: 5% B for 5 minutes; 5% B to 95% B in 1 minute; and from 95% B to 5% B in another 4 minutes. The QSTAR TOFMS scan was from 2000 to 3500 amu, and cycles were 899. All MS raw data were analyzed using the Analyst QS software (Applied Biosystems). For SEC analysis of the DVD-Ig binding protein, purified DVD-Ig binding protein and chimeric Abs, in PBS, were applied on a Superose 6 10/300 G2, 300×10 mm column (Amersham Bioscience, Piscataway, N.J.). An HPLC instrument, Model 10A (Shimadzu, Columbia, Md.) was used for SEC. All proteins were determined using UV detection at 280 nm and 214 nm. The elution was isocratic at a flow rate of 0.5 mL/minute. For stability study, samples in the concentration range of 0.2-0.4 mg/ml in PBS underwent 3 freeze-thaw cycles between −80° C. and 25° C., or were incubated at 4° C., 25° C., or 40° C., for 4 weeks and 8 weeks, followed by SEC analysis.
In order to determine the precise molecular weight of the DVD-Ig binding proteins, mass spectrometry was employed. […] To further study the physical properties of DVD-Ig binding protein in solution, size exclusion chromatography (SEC) was used to analyze each protein.
The physical stability of DVD-Ig was tested as follows. Purified antibodies in the concentration range of 0.2-0.4 mg/ml in PBS underwent 3 freeze-thaw cycles between −80° C. and 25° C., or were incubated at 4° C., 25° C., or 40° C., for 4 weeks and 8 weeks, followed by analysis using size exclusion chromatography (SEC) analysis (see Table 12).

hIL-1α = molecular target: T1, hIL-1α (Homo sapiens, UniProt P01583); assay: Surface plasmon resonance (Biacore) binding kinetics and affinity to hIL-1α; settings: antigen hIL-1α
T1 sequence (P01583 113-271): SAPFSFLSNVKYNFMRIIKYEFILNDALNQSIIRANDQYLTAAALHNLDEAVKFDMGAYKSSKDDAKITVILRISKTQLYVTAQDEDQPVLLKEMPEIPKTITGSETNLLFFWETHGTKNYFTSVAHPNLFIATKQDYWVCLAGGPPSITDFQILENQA
Method: as §1

[2] = 3xFreeze-Thaw between −80° C. and 25° C.

Sequence of hIL-1β (P01584 117-269): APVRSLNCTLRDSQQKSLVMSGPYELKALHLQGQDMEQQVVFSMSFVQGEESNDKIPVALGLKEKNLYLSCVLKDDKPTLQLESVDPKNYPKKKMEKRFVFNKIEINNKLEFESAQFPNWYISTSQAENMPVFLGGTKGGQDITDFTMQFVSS

Molecule	koff (hIL-1β)	kon (hIL-1β)	Ab (intact antibody) [1, 2]	Agg (aggregates) [1, 2]	Frgm (fragments) [1, 2]	Ab (intact antibody) ([1]; 4° C. @ 4 Wks)	Agg (aggregates) ([1]; 4° C. @ 4 Wks)	Frgm (fragments) ([1]; 4° C. @ 4 Wks)	Ab (intact antibody) ([1]; 4° C. @ 8 Wks)	Agg (aggregates) ([1]; 4° C. @ 8 Wks)	Frgm (fragments) ([1]; 4° C. @ 8 Wks)	Ab (intact antibody) ([1]; 25° C. @ 4 Wks)	Agg (aggregates) ([1]; 25° C. @ 4 Wks)	Frgm (fragments) ([1]; 25° C. @ 4 Wks)	Ab (intact antibody) ([1]; 25° C. @ 8 Wks)	Frgm (fragments) ([1]; 25° C. @ 8 Wks)	Ab (intact antibody) ([1]; 40° C. @ 4 Wks)	Agg (aggregates) ([1]; 40° C. @ 4 Wks)	Frgm (fragments) ([1]; 40° C. @ 4 Wks)	Ab (intact antibody) ([1]; 40° C. @ 8 Wks)	other results
3D12.E3-Ch: murine-human chimeric form of 3D12.E3 (anti-hIL-1α) with human constant region (antibody, V domains shown) VH: QIQLVQSGPELKKPGETVKISCKASGYTFRNYGMNWVKQAPGKDLKRMAWINTYTGESTYADDFKGRFAFSLETSASTAYLQINNLKNEDTATYFCARGIYYYGSSYAMDYWGQGTSVTVSS VL: NIQMTQTTSSLSASLGDRVTISCRASQDISNCLNWYQQKPDGTVKLLIYYTSRLHSGVPSRFSGSGSGTDYSLTISNLEQEDIATYFCQQGKTLPYAFGGGTKLEINR			98.28 percentage	1.72 percentage	0.00 percentage	99.15 percentage	0.85 percentage	0.00 percentage	90.33 percentage	5.35 percentage	4.32 percentage	98.71 percentage	1.29 percentage	0.00 percentage	60.55 percentage	38.34 percentage	98.35 percentage	1.65 percentage	0.00 percentage	81.47 percentage	koff (hIL-1α): 0.000552 s⁻¹; kon (hIL-1α): 412000 M⁻¹ s⁻¹; Agg (aggregates) ([1]; 40° C. @ 8 Wks): 4.74 percentage; Frgm (fragments) ([1]; 40° C. @ 8 Wks): 13.79 percentage
3D12.E3: murine monoclonal antibody to human IL-1α; VH SEQ ID NO: 89, VL SEQ ID NO: 90 (antibody, listed as Mus musculus, V domains shown) VH: QIQLVQSGPELKKPGETVKISCKASGYTFRNYGMNWVKQAPGKDLKRMAWINTYTGESTYADDFKGRFAFSLETSASTAYLQINNLKNEDTATYFCARGIYYYGSSYAMDYWGQGTSVTVSS VL: NIQMTQTTSSLSASLGDRVTISCRASQDISNCLNWYQQKPDGTVKLLIYYTSRLHSGVPSRFSGSGSGTDYSLTISNLEQEDIATYFCQQGKTLPYAFGGGTKLEINR																					koff (hIL-1α): 0.000713 s⁻¹; kon (hIL-1α): 643000 M⁻¹ s⁻¹

Second part, led by results:

koff (hIL-1β)	kon (hIL-1β)	Molecule	Ab (intact antibody) [1, 2]	Agg (aggregates) [1, 2]	Frgm (fragments) [1, 2]	Ab (intact antibody) ([1]; 4° C. @ 4 Wks)	Agg (aggregates) ([1]; 4° C. @ 4 Wks)	Frgm (fragments) ([1]; 4° C. @ 4 Wks)	Ab (intact antibody) ([1]; 4° C. @ 8 Wks)	Agg (aggregates) ([1]; 4° C. @ 8 Wks)	Frgm (fragments) ([1]; 4° C. @ 8 Wks)	Ab (intact antibody) ([1]; 25° C. @ 4 Wks)	Agg (aggregates) ([1]; 25° C. @ 4 Wks)	Frgm (fragments) ([1]; 25° C. @ 4 Wks)	Ab (intact antibody) ([1]; 25° C. @ 8 Wks)	Frgm (fragments) ([1]; 25° C. @ 8 Wks)	Ab (intact antibody) ([1]; 40° C. @ 4 Wks)	Agg (aggregates) ([1]; 40° C. @ 4 Wks)	Frgm (fragments) ([1]; 40° C. @ 4 Wks)	Ab (intact antibody) ([1]; 40° C. @ 8 Wks)	other results
0.000654 s⁻¹	1.41e+06 M⁻¹ s⁻¹	13F5.G5-Ch: murine-human chimeric form of 13F5.G5 (anti-hIL-1β) with human constant region (antibody, V domains shown) VH: QVQLQQSGAELVRPGSSVKISCKASGYAFSSYWMNWVKQRPGQGLEWIGQIYPGDGDTNYNGKFKGKATLTADKSSSTSYMQLSGLTSEDSAMYFCVRFPTGNDYYAMDYWGQGTSVTVSS VL: NIVLTQSPASLAVSLGQRATISCRASESVDSYGNSYMHWYQQKPGQPPKLLIYLASNLESGVPARFSGSGSRTDFTLTIDPVEADDAATYYCQQNNEDPFTFGSGTKLEIKR	87.0 percentage	13.0 percentage	0.0 percentage	95.8 percentage	4.2 percentage	0.0 percentage	97.8 percentage	2.2 percentage	0.0 percentage	100.0 percentage	0.0 percentage	0.0 percentage	97.5 percentage	1.0 percentage	78.1 percentage	20.3 percentage	1.6 percentage	65.4 percentage	Agg (aggregates) ([1]; 25° C. @ 8 Wks): 1.4 percentage; Agg (aggregates) ([1]; 40° C. @ 8 Wks): 34.6 percentage; Frgm (fragments) ([1]; 40° C. @ 8 Wks): 0.0 percentage
0.000621 s⁻¹	2.13e+06 M⁻¹ s⁻¹	13F5.G5: murine monoclonal antibody to human IL-1β; VH SEQ ID NO: 95, VL SEQ ID NO: 96 (antibody, listed as Mus musculus, V domains shown) VH: QVQLQQSGAELVRPGSSVKISCKASGYAFSSYWMNWVKQRPGQGLEWIGQIYPGDGDTNYNGKFKGKATLTADKSSSTSYMQLSGLTSEDSAMYFCVRFPTGNDYYAMDYWGQGTSVTVSS VL: NIVLTQSPASLAVSLGQRATISCRASESVDSYGNSYMHWYQQKPGQPPKLLIYLASNLESGVPARFSGSGSRTDFTLTIDPVEADDAATYYCQQNNEDPFTFGSGTKLEIKR																			
